Test results published in the supplement of paper PMC10724198.
± gives the standard deviation of the averaged measurements.

Tests used:
[1] = tested on: Saccharomyces cerevisiae; test: protein stability index of tFT-peptide fusion (C-terminal peptide) (PSI (0-1 scale)); higher = more stable (slower turnover)
Description: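 MPS profiling in S. cerevisiae of the tFT-X12 degron library: putative degron peptides plus stable controls, 12 aa, fused to the C-terminus of a sfGFP-mCherry timer. Cells are FACS-sorted into 8 mCherry/sfGFP bins and deep-sequenced. PSI runs from 0 (unstable) to 1 (stable). Backgrounds are wild type, das1Δ and doa10Δ at 30 °C, and wild type, das1Δ, cdc34-1 and cdc53-1 at 37 °C; 2-3 technical replicates each.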

[2] = tested on: Saccharomyces cerevisiae; test: as above; conditions: genetic background: wild type; temperature: 30 C
[3] = genetic background: cdc34-1, temperature: 37 C
[4] = genetic background: cdc53-1, temperature: 37 C
[5] = genetic background: das1 deletion, temperature: 30 C
[6] = genetic background: das1 deletion, temperature: 37 C
[7] = genetic background: doa10 deletion, temperature: 30 C
[8] = genetic background: wild type, temperature: 30 C
[9] = genetic background: wild type, temperature: 37 C
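Note: PSI is a weighted mean of sequencing reads over stability bins, variants kept only with over 10 reads, mCherry proximal and sfGFP distal, peptide attached via GGGS linker.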

Row | Sequence | protein stability index [1, 3] | protein stability index [1, 4] | protein stability index [1, 5] | protein stability index [1, 6] | protein stability index [1, 7] | protein stability index [1, 8] | protein stability index [1, 9] | protein stability index [2]
1 | YTLWFLAWGLVF | 0.262 ± 0.036 | 0.308 ± 0.016 | 0.241 ± 0.033 | 0.3865 ± 0.0028 | 0.209 ± 0.011 | 0.22 ± 0.034 | 0.36 ± 0.025 | 0.315 ± 0.023
2 | IFRLVRVVRSSS | 0.669 ± 0.015 | 0.688 ± 0.037 | 0.6 ± 0.025 | 0.714 ± 0.05 | 0.19 ± 0.036 | 0.236 ± 0.03 | 0.476 ± 0.011 | 0.386 ± 0.031
3 | GPCRPWIVVYAG | 0.566 ± 0.036 | 0.595 ± 0.042 | 0.357 ± 0.034 | 0.5831 ± 0.0018 | 0.295 ± 0.022 | 0.333 ± 0.018 | 0.512 ± 0.0063 | 0.475 ± 0.066
4 | LWYVQILNIVLN | 0.31 ± 0.018 | 0.388 ± 0.019 | 0.293 ± 0.048 | 0.4552 ± 0.0029 | 0.233 ± 0.024 | 0.249 ± 0.029 | 0.409 ± 0.013 | 0.328 ± 0.033
5 | PGSIGVVIAVRS | 0.461 ± 0.019 | 0.512 ± 0.013 | 0.345 ± 0.044 | 0.574 ± 0.02 | 0.2863 ± 0.0007 | 0.363 ± 0.015 | 0.517 ± 0.0066 | 0.464 ± 0.0078
6 | FPLPPPGSPPPL | 0.68 ± 0.035 | 0.7381 ± 0.0033 | 0.6712 ± 0.0062 | 0.735 ± 0.0085 | 0.682 ± 0.0071 | 0.677 ± 0.011 | 0.707 ± 0.014 | 0.0293 ± 0.02
7 | HCSRMIIIFLFL | 0.312 ± 0.044 | 0.425 ± 0.042 | 0.276 ± 0.045 | 0.488 ± 0.039 | 0.303 ± 0.061 | 0.282 ± 0.013 | 0.514 ± 0.038 | 0.371 ± 0.035
8 | RLLLLLTCIIYI | 0.173 ± 0.006 | 0.219 ± 0.023 | 0.194 ± 0.016 | 0.276 ± 0.052 | 0.183 ± 0.026 | 0.16 ± 0.046 | 0.267 ± 0.032 | 0.256 ± 0.015
9 | VFGVWVVVGCVG | 0.028 ± 0.007 | 0.101 ± 0.03 | 0.149 ± 0.037 | 0.215 ± 0.01 | 0.123 ± 0.019 | 0.143 ± 0.013 | 0.197 ± 0.013 | 0.248 ± 0.0043
10 | CCMLCVVAWSGV | 0.424 ± 0.044 | 0.517 ± 0.097 | 0.303 ± 0.027 | 0.5581 ± 0.0018 | 0.257 ± 0.0051 | 0.295 ± 0.056 | 0.524 ± 0.0054 | 0.359 ± 0.0042
11 | RMCEILGIRHLI | 0.611 ± 0.031 | 0.742 ± 0.016 | 0.645 ± 0.025 | 0.748 ± 0.017 | 0.137 ± 0.013 | 0.158 ± 0.01 | 0.303 ± 0.016 | 0.245 ± 0.061
12 | CVFFCVLVCFLS | 0.342 ± 0.0056 | 0.382 ± 0.023 | 0.302 ± 0.048 | 0.439 ± 0.006 | 0.317 ± 0.0066 | 0.3 ± 0.027 | 0.377 ± 0.0062 | 0.369 ± 0.036
13 | GGVWVLGVAVVW | 0.114 ± 0.014 | 0.132 ± 0.029 | 0.246 ± 0.019 | 0.349 ± 0.017 | 0.207 ± 0.0064 | 0.236 ± 0.023 | 0.275 ± 0.0036 | 0.348 ± 0.062
14 | LSPLPSPLILVV | 0.116 ± 0.08 | 0.16 ± 0.021 | 0.201 ± 0.0086 | 0.228 ± 0.0065 | 0.14761 ± 5.3e-05 | 0.191 ± 0.034 | 0.182 ± 0.022 | 0.284 ± 0.014
15 | CVLSWSLFVVVW | 0.0234 ± 0.0015 | 0.028 ± 0.0018 | 0.0273 ± 0.0091 | 0.0441 ± 0.011 | 0.0209 ± 0.0017 | 0.0168 ± 0.0058 | 0.0346 ± 0.015 | 0.044 ± 0.026
16 | FSALAPTPLLPL | 0.703 ± 0.055 | 0.7533 ± 0.0046 | 0.672 ± 0.029 | 0.739 ± 0.016 | 0.662 ± 0.029 | 0.671 ± 0.016 | 0.7063 ± 0.0068 | 0.706 ± 0.042
17 | FRYLRPAFLLLH | 0.162 ± 0.071 | 0.255 ± 0.029 | 0.355 ± 0.027 | 0.442 ± 0.0055 | 0.0693 ± 0.00084 | 0.0405 ± 0.019 | 0.0854 ± 0.02 | 0.0906 ± 0.031
18 | FGVECDLCLFCC | 0.617 ± 0.07 | 0.6837 ± 0.0031 | 0.572 ± 0.0088 | 0.692 ± 0.03 | 0.2392 ± 0.0022 | 0.257 ± 0.014 | 0.46 ± 0.015 | 0.376 ± 0.018
19 | GLGWLLFVVERV | 0.457 ± 0.019 | 0.499 ± 0.046 | 0.359 ± 0.037 | 0.552 ± 0.011 | 0.34 ± 0.018 | 0.345 ± 0.025 | 0.511 ± 0.027 | 0.453 ± 0.032
20 | YLCCFSVAFFLG | 0.175 ± 0.0039 | 0.331 ± 0.098 | 0.206 ± 0.039 | 0.3961 ± 0.00067 | 0.131 ± 4.8e-05 | 0.153 ± 0.018 | 0.317 ± 0.024 | 0.257 ± 0.072
